Laboratory results: patent publication US20160131655A1

Target: BCMA (B cell maturation antigen) protein on the cell surface of human multiple myeloma cells (human) (UniProt Q02223)
Test: FACS on OPM-2 cells, Alexa488-labeled antibody

Sequence of UniProt Q02223 (Q02223 whole entry N81S): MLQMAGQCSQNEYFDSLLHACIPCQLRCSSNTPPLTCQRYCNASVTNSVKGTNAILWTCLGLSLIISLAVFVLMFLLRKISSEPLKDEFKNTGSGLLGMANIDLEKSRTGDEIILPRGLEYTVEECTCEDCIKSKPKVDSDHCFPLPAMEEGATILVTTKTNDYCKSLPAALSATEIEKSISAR

| Mean Fluorescence Signal | Substance |
| --- | --- |
| 371 | anti-BCMA antibody MAB193 (clone 335004, rat IgG2a, R&D Systems #MAB193) |
| 609 | anti-BCMA antibody Vicky-1 (rat IgG1, GeneTex #GTX17323) |
